Target: bovine trypsin (bovine, UniProt P00760)
Experiment: equilibrium dissociation constants (Ki) from enzyme inhibition

KKVCACPKILKPVCGSDGRTYANSCIARCNGVSIKSEGSCPTGILN (other): binds.

Reference: patent US5972698 (Novartis Corporation, dated 1999)
